# In patent US20220040319A1 (Regeneron, published 2022):
# B1: H4H13316P2 (antibody, human IgG4, V domains shown)
# VH: EVQLVESGGGLVQPGGSLRLSCAASGFTFRSYVMSWFRQAPGKGLEWVSGMSGSGGSTSYADSVKGRFTISRDNSKNTLYLLMNSLRTEDTAVYYCAKENGANWNYGYYGMDVWGQGTTVTVSS
# VL: not shown
# B2: H1H13316P2 (antibody, IgG1, V domains shown)
# VH: B1 VH
# VL: not shown
# B3: H4H13302P2 (antibody, human IgG4, V domains shown)
# VH: QVQLVESGGGVVQPGRSLRLSCAASGFTFSNFGMHWVRQAPGKGLEWVAGIWFDGSNKNYIDSVKGRFTISRDNSKNTLYLQMNSLRAEDTAVYYCAREGYDSGTDYIPYDIFDIWGQGTMVTVSS
# VL: not shown
# B4: H4H13318P2 (antibody, human IgG4, V domains shown)
# VH: QVQLVESGGGVVQPGRSLRLSCVASGFSFSNFGMHWVRQAPGKGLEWVAIIWYDGSNKYYSDSVKGRFTISRDNSKNTLYLQMNSLRVDDTAVYYCARFDRWKFDAFDIWGQGTMVTVSS
# VL: not shown
# B5: H4H13319P2 (antibody, human IgG4, V domains shown)
# VH: QVQLVESGGGVVQPGRSLRLSCAASGFTFSSFAMHWVRQAPGKGLEWVAVIWYDGSNDYYAASVKGRFTISRDNSKNTLYLEMNRLRAEDTAVYHCARDNWNYWGGMDVWGQGTTVTVSS
# VL: not shown
# B6: H4H13312P2-Maytansinoid A (antibody, IgG4, V domains shown)
# VH: EVQLVESGGGLVQPGGSLRLSCAASGFIVTTNYMTWLRQAPGKGLEWVSLIYSSGHTYYADSVKGRFTISRHNSKNTLYLQMDSLRAEDTAVYYCASAFAADVFDIWGQGTMVTVSS
# VL: not shown
# modifications: SMCC-DM1 (Maytansinoid A) linker-payload conjugated to the antibody; residues not stated
# B7: H4H13312P2-Maytansinoid B (antibody, IgG4, V domains shown)
# VH: B6 VH
# VL: not shown
# modifications: Maytansinoid B (Compound 1, FIG. 20) linker-payload conjugated to the antibody; residues not stated
# B8: H4H13306P2 (antibody, human IgG4, V domains shown)
# VH: EVQLVESGGGLVQPGTSLRLSCAASGFTFDDYAMHWVRQAPGKGLEWVSGITWNSYNIDYADSVKGRFTISRDNAKNSLYLQMNSLRAEDTALYYCAKDDDYSNYVYFDYWGQGTLVTVSS
# VL: not shown
# B9: H4H13313P2 (antibody, human IgG4, V domains shown)
# VH: QVQLVESGGGVVQPGRSLRLSCSASGFSFSHFGMHWVRQVPGGGLEWVTSIWFDGSNRYYADSLKGRFTISRDNSKNTLYLEMNSLRAEDTAVYYCVREGILGTTNPYDVFDVWGQGTMVTVSS
# VL: not shown
# B10: H4H13325P2 (antibody, human IgG4, V domains shown)
# VH: EVQLLESGGGWVQPGGSLRLSCAASGFAFSNYAMNWVRQTPGKGLEWVSVISSSGGNTYYADSVKGRFAISRDNSRDTLHLQMNRLRVEDTAVYYCAKEIRPYYDLSYYYGMDVWGQGTTVTVSS
# VL: not shown
# B11: H4H13290P2 (antibody, human IgG4, V domains shown)
# VH: QVQLQESGPGLVKPSETLSLTCTVSGDSISSYYWTWIRQPPGKGLEWIGYIFYRGGTTYNPSLKSRVTISVDTSKNQFSLKLRSVTAADTAVYYCARGDDLLVVTSVYWYIDLWGRGTLVTVSS
# VL: not shown
# B12: H4H13291P2 (antibody, human IgG4, V domains shown)
# VH: QVQLVESGGGVVQPGGSLRLSCAASGFTFSGYGMHWVRQAPGKGLEWMAVIWYDGSNDYYPDSVKGRFTISRDNSKNTLYLQMNSLRVEDTAVYYCARDAWDLLRSFDYWGQGTLVTVSS
# VL: not shown
# B13: H4H13301P2 (antibody, human IgG4, V domains shown)
# VH: QVQLVESGGGVVQPGTSLRLSCVASGFTFRNFGMHWVRQAPGKGLEWVANIWFDGSNENYVESIQGRFTISRDNSKNTLNLQMNSLRAEDSAVYYCVREGILGTTNPYDAFDVWGQGTMVTVSS
# VL: not shown
# B14: H1H13301P2 (antibody, IgG1, V domains shown)
# VH: B13 VH
# VL: not shown
# B15: H4H13311P2 (antibody, human IgG4, V domains shown)
# VH: QVQLVESGGGVVQPGRSLRLSCAASGFTFSSYAMHWVRQAPGRGLEWVAVIWHDGDVEYYVDSVKDRFTISRDNSKSTLYLQMNSLRAEDTALYYCAREAWDLLRPFDYWGQGTLVTVSS
# VL: not shown
# B16: H4H13300P2 (antibody, human IgG4, V domains shown)
# VH: QVQLVESGGGVVQPGRSLRLSCAVSGFTFSSYGMHWVRQAPGKGLEWVANIWYDGTNDYYPYSVKGRFTISRDNSQNTLYLQMNSLRAEDTAVYYCAREDFINYRSFDYWGQGTLVTVSS
# VL: not shown
# B17: H4H13295P2 (antibody, human IgG4, V domains shown)
# VH: QVQLVESGGGVVQPGRSLRVSCVVSGFTFSSFGMHWVRQAPDKGLEWVAVIWYDGSNDYYSDSVKGRFTISRDNSKNTLFLQMNRLRAEDTAVYYCARANNWNRFDAFDLWGQGTMVTVSS
# VL: not shown
# B18: H4H14635D-Maytansinoid A (bispecific antibody, V domains shown)
# VH 1: B17 VH
# VH 2: B6 VH
# VL: not shown
# modifications: SMCC-DM1 (Maytansinoid A) linker-payload conjugated to the antibody; residues not stated
# B19: H4H14635D-Maytansinoid B (bispecific antibody, V domains shown)
# VH 1: B17 VH
# VH 2: B6 VH
# VL: not shown
# modifications: Maytansinoid B (Compound 1, FIG. 20) linker-payload conjugated to the antibody; residues not stated
# B20: H4H13309P2 (antibody, human IgG4, V domains shown)
# VH: QVQLVQSGTEVKEPGASVKVSCKASGYSFTTYGISWLRQAPGQGLEWMGWISTYNGDTISAQMLQDRVTLTADTSTRTAYMELRSLRSDDTAVYYCARGHEYDSLVYSYWGQGTLVTVSS
# VL: not shown
# Columns and labels:
# Assay in all cases: cell-based or functional assay
# human MET on cells [1] = molecular target: T1, human MET on cells (human, UniProt P08581 25-1390); for % Inhibition, HEK293/SRE-Luc Blocking Activity (HGF, 1 h mAb pre-bind): test concentration or dose not given here
# T1 sequence (P08581 25-1390 limits assumed, form in doubt): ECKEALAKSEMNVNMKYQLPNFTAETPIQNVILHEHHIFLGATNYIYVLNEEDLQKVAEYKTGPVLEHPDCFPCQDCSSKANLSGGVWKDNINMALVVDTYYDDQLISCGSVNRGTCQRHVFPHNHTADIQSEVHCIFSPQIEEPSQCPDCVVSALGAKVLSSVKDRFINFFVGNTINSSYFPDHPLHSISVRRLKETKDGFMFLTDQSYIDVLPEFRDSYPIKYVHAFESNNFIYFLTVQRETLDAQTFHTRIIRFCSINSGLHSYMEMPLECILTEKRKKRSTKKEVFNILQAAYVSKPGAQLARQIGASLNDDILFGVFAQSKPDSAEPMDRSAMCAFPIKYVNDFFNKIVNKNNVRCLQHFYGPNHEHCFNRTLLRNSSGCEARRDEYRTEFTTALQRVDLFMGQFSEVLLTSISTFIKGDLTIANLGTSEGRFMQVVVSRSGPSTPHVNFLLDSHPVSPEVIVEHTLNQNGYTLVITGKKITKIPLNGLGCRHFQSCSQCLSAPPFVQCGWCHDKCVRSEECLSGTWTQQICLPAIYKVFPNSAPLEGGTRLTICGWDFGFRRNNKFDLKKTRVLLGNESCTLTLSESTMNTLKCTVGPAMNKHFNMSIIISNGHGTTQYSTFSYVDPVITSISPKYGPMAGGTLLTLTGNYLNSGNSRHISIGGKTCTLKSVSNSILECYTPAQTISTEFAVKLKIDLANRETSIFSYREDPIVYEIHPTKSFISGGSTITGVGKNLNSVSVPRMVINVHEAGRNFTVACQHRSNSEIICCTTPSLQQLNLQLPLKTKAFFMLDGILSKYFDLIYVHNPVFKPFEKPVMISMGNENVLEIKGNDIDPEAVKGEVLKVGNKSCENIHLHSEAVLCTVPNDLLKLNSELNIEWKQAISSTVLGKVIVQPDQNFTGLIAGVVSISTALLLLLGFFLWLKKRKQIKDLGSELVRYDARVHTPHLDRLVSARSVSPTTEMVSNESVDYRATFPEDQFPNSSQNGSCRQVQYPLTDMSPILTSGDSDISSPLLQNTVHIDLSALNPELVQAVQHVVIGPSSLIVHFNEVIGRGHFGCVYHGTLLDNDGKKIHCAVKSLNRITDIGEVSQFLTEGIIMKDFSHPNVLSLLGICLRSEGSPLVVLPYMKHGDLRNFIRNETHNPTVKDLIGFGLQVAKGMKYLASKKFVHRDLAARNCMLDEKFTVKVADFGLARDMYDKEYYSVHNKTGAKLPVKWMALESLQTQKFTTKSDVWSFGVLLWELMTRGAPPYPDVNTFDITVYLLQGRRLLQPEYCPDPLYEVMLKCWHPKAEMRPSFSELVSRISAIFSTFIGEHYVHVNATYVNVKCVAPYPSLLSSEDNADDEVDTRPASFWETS
# human MET on cells [2] = molecular target: T1, human MET on cells; remark: listed apart in the source; for % Inhibition, HEK293/SRE-Luc Blocking Activity (HGF, 1 h mAb pre-bind): test concentration or dose not given here
# human MET on cells [3] = molecular target: T1, human MET on cells; remark: listed apart in the source; for % Inhibition, HEK293/SRE-Luc Blocking Activity (HGF, 1 h mAb pre-bind): test concentration or dose not given here
Binder,"% Growth Inhibition, SNU5 cells (human MET on cells [1]) [%]","IC50, SNU5 growth (human MET on cells [1]) [pM]","% Inhibition, HEK293/SRE-Luc Blocking Activity (HGF, 1 h mAb pre-bind) (human MET on cells [2]) [%]","EC50, Ligand (HGF)-Independent HEK293/SRE-Luc Activation (human MET on cells [2]) [pM]","Fold Response, Ligand (HGF)-Independent HEK293/SRE-Luc Activation (human MET on cells [2]) [fold]","IC50, HEK293/SRE-Luc Blocking Activity (HGF, 1 h mAb pre-bind) (human MET on cells [2]) [pM]","IC50, 6-day in vitro cytotoxicity, A549 (human MET on cells [3]) [nM]","IC50, 6-day in vitro cytotoxicity, EBC-1 (human MET on cells [3]) [nM]","IC50, 6-day in vitro cytotoxicity, Hs746t (human MET on cells [3]) [nM]","Max % Kill, 6-day in vitro cytotoxicity, A549 (human MET on cells [3]) [%]","Max % Kill, 6-day in vitro cytotoxicity, EBC-1 (human MET on cells [3]) [%]","Max % Kill, 6-day in vitro cytotoxicity, Hs746t (human MET on cells [3]) [%]"
B1,53,100,74,47,2.3,7.8,–,–,–,–,–,–
B2,30,200,86,–,1.7,40,–,–,–,–,–,–
B3,40,110,45,–,1.8,1600,–,–,–,–,–,–
B4,18,51,77,–,3.1,100,–,–,–,–,–,–
B5,23,100,67,180,4.8,52,–,–,–,–,–,–
B6,–,–,–,–,–,–,18.3,0.39,1.59,89,95,87
B7,–,–,–,–,–,–,27.1,0.07,0.89,85,95,90
B8,28,71,–,13,–,–,–,–,–,–,–,–
B9,34,44,47,–,1.2,2300,–,–,–,–,–,–
B10,57,44,69,190,4.3,13,–,–,–,–,–,–
B11,12,–,56,< 2,9.8,< 2,–,–,–,–,–,–
B12,24,–,61,390,2.7,130,–,–,–,–,–,–
B13,33,74,40,–,1.6,1500,–,–,–,–,–,–
B14,33,100,42,–,1.4,3300,–,–,–,–,–,–
B15,8,–,62,300,5.2,35,–,–,–,–,–,–
B16,16,–,69,480,2.8,120,–,–,–,–,–,–
B17,30,–,70,300,2.8,55,–,–,–,–,–,–
B18,–,–,–,–,–,–,6.78,0.76,1.76,91,96,86
B19,–,–,–,–,–,–,21.4,0.26,2.32,72,96,89
B20,22,100,77,390,9.2,200,–,–,–,–,–,–
